These results are taken from US20160159924A1 (Novo Nordisk, published 2016).

The labels stand for the following.
B1: rec0266-0000-0010-VL_N90G (antibody, mouse IgG1, name in Kabat numbering, V domains shown)
VH: DVKLVESGGGLVKPGGSLKLSCVASGFTFSSYTMSWVRQTPEKRLEWVATISGGGSHIYYADSVKGRFTISRDNAKNTLYLQMSSLKSEDTAIYYCTRDGRDGSWFAYWGQGTLVTVSA
VL: DIVMTQSPATLSVTPGDRVSLSCRTSQSIGDYLHWYQQKSHESPRLLIKYVSQSISGIPSRFSGSGSGSDFTLSINSVESEDVGVYYCQGSHSFPLTFGSGTKLELKR
B2: rec0266-0000-0010-VL_N90E (antibody, mouse IgG1, name in Kabat numbering, V domains shown)
VH: DVKLVESGGGLVKPGGSLKLSCVASGFTFSSYTMSWVRQTPEKRLEWVATISGGGSHIYYADSVKGRFTISRDNAKNTLYLQMSSLKSEDTAIYYCTRDGRDGSWFAYWGQGTLVTVSA
VL: DIVMTQSPATLSVTPGDRVSLSCRTSQSIGDYLHWYQQKSHESPRLLIKYVSQSISGIPSRFSGSGSGSDFTLSINSVESEDVGVYYCQESHSFPLTFGSGTKLELKR
B3: rec0266-0000-0010-VL_N90L (antibody, mouse IgG1, name in Kabat numbering, V domains shown)
VH: DVKLVESGGGLVKPGGSLKLSCVASGFTFSSYTMSWVRQTPEKRLEWVATISGGGSHIYYADSVKGRFTISRDNAKNTLYLQMSSLKSEDTAIYYCTRDGRDGSWFAYWGQGTLVTVSA
VL: DIVMTQSPATLSVTPGDRVSLSCRTSQSIGDYLHWYQQKSHESPRLLIKYVSQSISGIPSRFSGSGSGSDFTLSINSVESEDVGVYYCQLSHSFPLTFGSGTKLELKR
B4: rec0266-0000-0010-VL_N90F (antibody, mouse IgG1, name in Kabat numbering, V domains shown)
VH: DVKLVESGGGLVKPGGSLKLSCVASGFTFSSYTMSWVRQTPEKRLEWVATISGGGSHIYYADSVKGRFTISRDNAKNTLYLQMSSLKSEDTAIYYCTRDGRDGSWFAYWGQGTLVTVSA
VL: DIVMTQSPATLSVTPGDRVSLSCRTSQSIGDYLHWYQQKSHESPRLLIKYVSQSISGIPSRFSGSGSGSDFTLSINSVESEDVGVYYCQFSHSFPLTFGSGTKLELKR
B5: rec0266-0000-0010-VL_N90R (antibody, mouse IgG1, name in Kabat numbering, V domains shown)
VH: DVKLVESGGGLVKPGGSLKLSCVASGFTFSSYTMSWVRQTPEKRLEWVATISGGGSHIYYADSVKGRFTISRDNAKNTLYLQMSSLKSEDTAIYYCTRDGRDGSWFAYWGQGTLVTVSA
VL: DIVMTQSPATLSVTPGDRVSLSCRTSQSIGDYLHWYQQKSHESPRLLIKYVSQSISGIPSRFSGSGSGSDFTLSINSVESEDVGVYYCQRSHSFPLTFGSGTKLELKR
B6: rec0266-0000-0010-VL_N90S (antibody, mouse IgG1, name in Kabat numbering, V domains shown)
VH: DVKLVESGGGLVKPGGSLKLSCVASGFTFSSYTMSWVRQTPEKRLEWVATISGGGSHIYYADSVKGRFTISRDNAKNTLYLQMSSLKSEDTAIYYCTRDGRDGSWFAYWGQGTLVTVSA
VL: DIVMTQSPATLSVTPGDRVSLSCRTSQSIGDYLHWYQQKSHESPRLLIKYVSQSISGIPSRFSGSGSGSDFTLSINSVESEDVGVYYCQSSHSFPLTFGSGTKLELKR
B7: rec0266-0000-0010-VL_N90K (antibody, mouse IgG1, name in Kabat numbering, V domains shown)
VH: DVKLVESGGGLVKPGGSLKLSCVASGFTFSSYTMSWVRQTPEKRLEWVATISGGGSHIYYADSVKGRFTISRDNAKNTLYLQMSSLKSEDTAIYYCTRDGRDGSWFAYWGQGTLVTVSA
VL: DIVMTQSPATLSVTPGDRVSLSCRTSQSIGDYLHWYQQKSHESPRLLIKYVSQSISGIPSRFSGSGSGSDFTLSINSVESEDVGVYYCQKSHSFPLTFGSGTKLELKR
B8: rec0266-0000-0010-VL_N90V (antibody, mouse IgG1, name in Kabat numbering, V domains shown)
VH: DVKLVESGGGLVKPGGSLKLSCVASGFTFSSYTMSWVRQTPEKRLEWVATISGGGSHIYYADSVKGRFTISRDNAKNTLYLQMSSLKSEDTAIYYCTRDGRDGSWFAYWGQGTLVTVSA
VL: DIVMTQSPATLSVTPGDRVSLSCRTSQSIGDYLHWYQQKSHESPRLLIKYVSQSISGIPSRFSGSGSGSDFTLSINSVESEDVGVYYCQVSHSFPLTFGSGTKLELKR
B9: rec0266-0000-0010-VL_N90Q (antibody, mouse IgG1, name in Kabat numbering, V domains shown)
VH: DVKLVESGGGLVKPGGSLKLSCVASGFTFSSYTMSWVRQTPEKRLEWVATISGGGSHIYYADSVKGRFTISRDNAKNTLYLQMSSLKSEDTAIYYCTRDGRDGSWFAYWGQGTLVTVSA
VL: DIVMTQSPATLSVTPGDRVSLSCRTSQSIGDYLHWYQQKSHESPRLLIKYVSQSISGIPSRFSGSGSGSDFTLSINSVESEDVGVYYCQQSHSFPLTFGSGTKLELKR
B10: rec0266-0000-0010-VL_N90T (antibody, mouse IgG1, name in Kabat numbering, V domains shown)
VH: DVKLVESGGGLVKPGGSLKLSCVASGFTFSSYTMSWVRQTPEKRLEWVATISGGGSHIYYADSVKGRFTISRDNAKNTLYLQMSSLKSEDTAIYYCTRDGRDGSWFAYWGQGTLVTVSA
VL: DIVMTQSPATLSVTPGDRVSLSCRTSQSIGDYLHWYQQKSHESPRLLIKYVSQSISGIPSRFSGSGSGSDFTLSINSVESEDVGVYYCQTSHSFPLTFGSGTKLELKR
B11: rec0266-0000-0010-VL_N90P (antibody, mouse IgG1, name in Kabat numbering, V domains shown)
VH: DVKLVESGGGLVKPGGSLKLSCVASGFTFSSYTMSWVRQTPEKRLEWVATISGGGSHIYYADSVKGRFTISRDNAKNTLYLQMSSLKSEDTAIYYCTRDGRDGSWFAYWGQGTLVTVSA
VL: DIVMTQSPATLSVTPGDRVSLSCRTSQSIGDYLHWYQQKSHESPRLLIKYVSQSISGIPSRFSGSGSGSDFTLSINSVESEDVGVYYCQPSHSFPLTFGSGTKLELKR
B12: rec0266-0000-0010-VL_N90Y (antibody, mouse IgG1, name in Kabat numbering, V domains shown)
VH: DVKLVESGGGLVKPGGSLKLSCVASGFTFSSYTMSWVRQTPEKRLEWVATISGGGSHIYYADSVKGRFTISRDNAKNTLYLQMSSLKSEDTAIYYCTRDGRDGSWFAYWGQGTLVTVSA
VL: DIVMTQSPATLSVTPGDRVSLSCRTSQSIGDYLHWYQQKSHESPRLLIKYVSQSISGIPSRFSGSGSGSDFTLSINSVESEDVGVYYCQYSHSFPLTFGSGTKLELKR
B13: rec0266-0000-0010-VL_N90I (antibody, mouse IgG1, name in Kabat numbering, V domains shown)
VH: DVKLVESGGGLVKPGGSLKLSCVASGFTFSSYTMSWVRQTPEKRLEWVATISGGGSHIYYADSVKGRFTISRDNAKNTLYLQMSSLKSEDTAIYYCTRDGRDGSWFAYWGQGTLVTVSA
VL: DIVMTQSPATLSVTPGDRVSLSCRTSQSIGDYLHWYQQKSHESPRLLIKYVSQSISGIPSRFSGSGSGSDFTLSINSVESEDVGVYYCQISHSFPLTFGSGTKLELKR
B14: rec0266-0000-0010-VL_N90H (antibody, mouse IgG1, name in Kabat numbering, V domains shown)
VH: DVKLVESGGGLVKPGGSLKLSCVASGFTFSSYTMSWVRQTPEKRLEWVATISGGGSHIYYADSVKGRFTISRDNAKNTLYLQMSSLKSEDTAIYYCTRDGRDGSWFAYWGQGTLVTVSA
VL: DIVMTQSPATLSVTPGDRVSLSCRTSQSIGDYLHWYQQKSHESPRLLIKYVSQSISGIPSRFSGSGSGSDFTLSINSVESEDVGVYYCQHSHSFPLTFGSGTKLELKR
B15: rec0266-0000-0010-VH_G99Y (antibody, mouse IgG1, V domains shown)
VH: DVKLVESGGGLVKPGGSLKLSCVASGFTFSSYTMSWVRQTPEKRLEWVATISGGGSHIYYADSVKGRFTISRDNAKNTLYLQMSSLKSEDTAIYYCTRDGRDYSWFAYWGQGTLVTVSA
VL: DIVMTQSPATLSVTPGDRVSLSCRTSQSIGDYLHWYQQKSHESPRLLIKYVSQSISGIPSRFSGSGSGSDFTLSINSVESEDVGVYYCQNSHSFPLTFGSGTKLELKR

In one experiment the target is T1, recombinant human sc-uPA (human, UniProt P00749 21-431).
T1 construct: 411 amino acid single-chain zymogen expressed in HEK293; the 20-residue signal peptide is not present in the mature protein; also called human single-chain uPA; pro-uPA
Briefly: SPR, mAb immobilised. The procedure: The binding affinity to recombinant human sc-uPA protein (SEQ ID […]) was measured by surface plasmon resonance (SPR).
The experiments were performed on a Biacore™ instrument (GE Healthcare) and analysed with the BIAcore 4000 Evaluation Software. Anti-human uPA mAb variants were directly immobilized at 150-600 RU on flow cells of a CM5 sensor chip (GE Healthcare; cat. # BR-1000-12) via amine coupling, respectively. Recombinant human sc-uPA was diluted in HBS-N (GE Healthcare Cat BR-1006-70) with 1% BSA buffer with a dilution factor 3× ranging 1000-0.13 nM. Recombinant human sc-uPA was injected for 60 s, followed by a 600 s dissociation phase. Binding curves were measured at 25° C. with a flow rate of 30 μL/min. Regeneration of the chip surface was performed with pH1.5 Glycine for 25 s at 30 μl/min. Determination of the kinetic parameters was performed by fitting with a 1:1 binding model. Binding affinities were calculated and are stated in Table 20 below.
What is called Kd is a measure of binding affinity in units of concentration. Take B1: the Kd was determined as 0.68 nM.

Turning to B2, the Kd was 0.43 nM. Same read-out and setting: under B3 stands 0.61 nM; under B4, 0.79 nM. Still for that read-out and setting: under B5 stands 1.9 nM; under B6, 0.38 nM; under B7, 1.1 nM. On the same count and under the same terms, under B8 stands 0.58 nM; under B9, 0.32 nM; under B10, 0.48 nM. Take B11: the Kd was found to be 0.62 nM. Regarding B12, the Kd amounted to 0.8 nM. The same measure, in the same setting: next, B13: 0.62 nM; B14: 0.4 nM.

A further experiment addresses T1, recombinant human sc-uPA. Nature of the experiment: SPR, mAb immobilised. This is another data set of the same source. The procedure, abridged:
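Anti-uPA mAb variants amine-coupled to CM5 chip at 150-600 RU; sc-uPA injected 60 s at 1000-0.13 nM (3-fold) in HBS-N with 1% BSA, 600 s dissociation, 25 °C, 30 μL/min. Kinetics fitted by 1:1 binding model; glycine pH1.5 regeneration.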
On the technique in general: Surface plasmon resonance follows binding to a sensor surface in real time, without labels.
As to B15, the Kd amounted to 1.8 nM.
